Test results taken from patent US20220088221A1, “SELF-ASSEMBLED PEPTIDE NANOPARTICLE AND USE THEREOF” (THE METHODIST HOSPITAL, priority 2019, published 2022).
Entries after “also recorded” stand apart in the source; their conditions may differ. Read-outs that look alike come from different tables or passages of the source.

Assay: Self-assembly and size of CPP-peptide/TLR ligand nanoparticles (DLS, AFM)
Format: physicochemical
Procedure: FIG. 3A-1, FIG. 3A-2, FIG. 3B-1, FIG. 3B-2, FIG. 3C-1 and FIG. 3C-2 show self-assembled nanoparticles of TAT-TRP2 with CpG and MPLA (CM for short). […] AFM analysis indicates the size of cross section of the nanoparticle;
Grey bars indicate unstable/polydispersed complex with large PDI (PDI>0.5);
While both CPP-antigen peptide (10 mM) and CpG (10 mM) were soluble in PBS, but once mixed (1:1), precipitations or aggregates were observed. These aggregates were round nanoparticles, with a diameter of […] in size. The self-assembly was believed to occur through electric interaction of positively charged CPPs with negatively charged molecules, as well as hydrophobic interaction between the peptides themselves and monophosphoryl lipid A (MPLA).
MPLA and poly I:C were completely dissolved in sterile ultrapure water at a concentration of 1 mg/mL. To prepare the TAT-peptide vaccine nanoparticles, CpG, MPLA, and poly I:C of indicated volume (shown in Table 3) were mix thoroughly in ultrapure water or buffer by intensive vortex.
Self-assembly of the TAT-peptide nanoparticles was triggered by dropwise addition of TAT-peptide with ultrasonication in iced water bath within 1 min. […] The hydrophobic C-terminus of TRP2 peptide forms a hydrophobic core together with the MPLA via hydrophobic interactions.
Grey bars indicate unstable/polydispersed complexes with large PDI (PDI>0.5).

Sequence	complex / nanoparticle formation with CpG and MPLA (AFM)	complex / nanoparticle formation with CpG and MPLA (AFM) (listed as TRP2)
YGRKKRRQRRRSYVDFFVWL [TAT-TRP2]	formed tight complexes	–
SYVDFFVWL [TRP2 peptide]	failed to form complex with CpG-MPLA and formed long fibers; also recorded: failed to form complexes	could not form a particle
